Assays:
[1] = biological target: T1, GST-UP1 (hnRNP A1 fragment) (UniProt P49312 P49312:1-196); assay: EMSA; not shown; settings: tags: GST; label: 5'-32P
Method: (§1) Gel-shift assays were performed using single-stranded or partially double-stranded duplex substrates. A, the concentrations of GST-UP1 (G-UP1) used for each set of DNA substrate were 0.25, 0.5, 1.0 and 0 µM. Duplex formation was accomplished by incubating an equimolar amount of unlabeled Tb with labeled b' (or unlabeled aT with labeled a'). The partial duplex substrates migrate slightly above the position of labeled Tb and aT. […] B, gel shift assays were accomplished in the presence of an excess of cold oligonucleotides as competitor. Labeled Tb or aT (0.1 µM) was used in combination with cold Tb or aT (0, 0.625, 1.25, 2.5 and 5.0 µM) and G-UP1 (0.3 µM). (Open bar) vertebrate telomeric repeats; (solid bar) nontelomeric DNA. The asterisk (*) indicates which oligonucleotide was ^32P-labeled at its 5' end. Complexes were fractionated on 5% non-denaturating polyacrylamide gels. The position of the free and complexed oligonucleotides is shown.

UP1 (hnRNP A1 fragment) [2] = biological target: T2, UP1 (hnRNP A1 fragment) (UniProt P49312 P49312:1-196); assay: EMSA; not shown; settings: tags: GST removed by thrombin
T2 sequence (P49312 1-196, one chain of several): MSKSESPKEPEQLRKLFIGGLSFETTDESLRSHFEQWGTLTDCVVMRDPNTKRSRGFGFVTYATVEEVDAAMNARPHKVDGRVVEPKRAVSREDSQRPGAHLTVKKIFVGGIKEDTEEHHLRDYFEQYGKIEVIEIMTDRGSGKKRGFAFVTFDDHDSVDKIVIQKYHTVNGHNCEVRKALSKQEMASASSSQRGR

UP1 (hnRNP A1 fragment) [3] = biological target: T2, UP1 (hnRNP A1 fragment); assay: EMSA; 1-4 uM protein, 0.5 uM TS10; settings: tags: GST removed by thrombin; label: 5'-32P
Method: (§2) GST-UP1 (G-UP1) at concentrations of 0, 0.2, 0.5, 1.0, 2.0 and 4.0 µM, or UP1 at concentrations of 0, 1.0, 2.0 and 4.0 µM, were incubated with TS10 (0.5 µM). Complexes were fractionated on 5% non-denaturating polyacrylamide gels. The position of complexes and free TS10 is shown.

[4] = biological target: T1, GST-UP1 (hnRNP A1 fragment); assay: EMSA; 0.2-4.0 uM protein, 0.5 uM TS10; 2.5 mM MgCl2, 75 mM KCl, 30 C; settings: tags: GST; label: 5'-32P
Method: as §2

[5] = biological target: T1, GST-UP1 (hnRNP A1 fragment); assay: EMSA; 0.25-1.0 uM protein; settings: tags: GST; label: 5'-32P
Method: as §1

[6] = biological target: T1, GST-UP1 (hnRNP A1 fragment); assay: EMSA; legend titled binding to single-stranded telomeric extensions in partial duplex; settings: tags: GST
Method: as §1

T1 sequence (P49312 1-196, one chain of several): as above

Question: Does CCGGATCACAGGACC (ssDNA) [b'] bind [1]?
Answer: no binding

Question: Does GGGGGTGGGAGCAGGGGAGG (ssDNA) [Ne4] bind (UP1 (hnRNP A1 fragment) [2])?
Answer: no binding

Question: Does GGTTAGGGTTAGGGTTAG (ssDNA) [Tel2] bind (UP1 (hnRNP A1 fragment) [2])?
Answer: binds

B1: TS10 (ssDNA)
DNA: TTAGGGTTAGGGTTAGGGTTAGGGTTAGGGTTAGGGTTAGGGTTAGGGTTAGGGTTAGGG
Question: Does B1 bind (UP1 (hnRNP A1 fragment) [3])?
Answer: binds

Question: Does B1 bind [4]?
Answer: binds

Question: Does GGCCTAGTGTCCTGGTAGGGTTAGGGTTAGGGT (ssDNA) [aT] bind [5]?
Answer: binds

B2: aT/a' partial duplex (mixed)
DNA 1: GGCCTAGTGTCCTGGTAGGGTTAGGGTTAGGGT
DNA 2: CCAGGACACTAGGCC
Question: Does B2 bind ([6]; label: 5'-32P on a', 3' single-stranded telomeric overhang)?
Answer: binds

Question: Does CCAGGACACTAGGCC (ssDNA) [a'] bind [1]?
Answer: no binding

Question: Does TAGGGTTAGGGTTAGGGTGGTCCTGTGATCCGG (ssDNA) [Tb] bind [5]?
Answer: binds

B3: Tb/b' partial duplex (mixed)
DNA 1: TAGGGTTAGGGTTAGGGTGGTCCTGTGATCCGG
DNA 2: CCGGATCACAGGACC
Question: Does B3 bind ([6]; label: 5'-32P on b', 5' single-stranded telomeric overhang)?
Answer: binds

From patent US6358687, “Methods for monitoring the binding of A1/UP1 to single-stranded nucleic acid sequences, and to measure the effect of this binding on telomere extension and protection” (Telogene Inc.)
